This note sets out measurements from patent US20180021429A1 (PHARMA FOODS INTERNATIONAL, published 2018).

Where a chain is given by its changes, count along the chain named.

T1: human FSTL1 (construct not stated) (human, UniProt Q12841 21-308)
T1 construct: also called human FSTL1 antigen; FSTL1 (R&D Systems, Inc. Cat#1694-FN-050)
T1 sequence: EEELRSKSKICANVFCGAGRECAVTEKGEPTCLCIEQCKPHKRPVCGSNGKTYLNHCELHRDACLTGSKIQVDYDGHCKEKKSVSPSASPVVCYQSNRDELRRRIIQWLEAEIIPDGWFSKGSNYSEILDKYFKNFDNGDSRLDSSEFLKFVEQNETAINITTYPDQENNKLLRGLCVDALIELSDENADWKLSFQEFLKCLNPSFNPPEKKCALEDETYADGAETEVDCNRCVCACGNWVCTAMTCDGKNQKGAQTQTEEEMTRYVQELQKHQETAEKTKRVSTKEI

T2: His-tagged mouse FSTL1 (amino acid sequence of mouse FSTL1 used in Examples, SEQ ID NO: 72) (mouse, UniProt Q62356 19-306)
T2 sequence: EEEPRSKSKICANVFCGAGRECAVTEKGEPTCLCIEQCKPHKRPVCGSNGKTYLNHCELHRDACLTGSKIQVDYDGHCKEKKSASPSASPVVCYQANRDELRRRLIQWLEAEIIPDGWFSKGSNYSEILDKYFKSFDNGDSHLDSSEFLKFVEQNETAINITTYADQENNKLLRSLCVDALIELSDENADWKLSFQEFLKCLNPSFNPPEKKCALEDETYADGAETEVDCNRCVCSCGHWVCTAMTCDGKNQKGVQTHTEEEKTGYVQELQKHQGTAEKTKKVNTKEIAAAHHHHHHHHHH

B1: humanized #6-55 antibody H(1)-L(1) (IgG1 type) (antibody, V domains shown)
VH: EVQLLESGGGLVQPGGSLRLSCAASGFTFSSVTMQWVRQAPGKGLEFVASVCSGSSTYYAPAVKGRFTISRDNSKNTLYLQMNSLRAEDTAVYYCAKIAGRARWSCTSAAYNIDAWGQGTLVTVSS
VL: SYELTQPPSVSVSPGQTARITCSGGGNNYGWYQQKPGQAPVTVIYYNDNRPSGIPERFSGSNSGSTTTLTISGVQAEDEADYYCGSWDSNTDSGIFGGGTKLTVLG
notes: Human IgG1 constant region; expressed in HEK293 with a chicken antibody leader; also called h#6-55 H(1)-L(1)
B2: humanized #6-55 antibody H(3)-L(1) (IgG1 type) (antibody, V domains shown)
VH: EVQLLESGGGLVQPGGSLRLSCAASGFTFSSVTMQWVRQAPGKGLEFVASVCSGSSTYYAPAVKGRVTISRDNSKNTVYLQMNSLRAEDTAVYYCAKIAGRARWSCTSAAYNIDAWGQGTLVTVSS
VL: B1 VL
notes: Human IgG1 constant region; expressed in HEK293; also called h#6-55 H(3)-L(1)
B3: humanized #6-55 antibody H(1)-L(3) (IgG1 type) (antibody, V domains shown)
VH: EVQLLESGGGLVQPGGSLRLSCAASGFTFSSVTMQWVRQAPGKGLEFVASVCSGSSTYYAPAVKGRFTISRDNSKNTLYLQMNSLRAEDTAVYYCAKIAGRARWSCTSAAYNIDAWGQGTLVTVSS
VL: B1 VL with S65N, T67A
notes: Human IgG1 constant region; expressed in HEK293; also called h#6-55 H(1)-L(3)
B4: humanized #6-55 antibody H(1)-L(2) (IgG1 type) (antibody, V domains shown)
VH: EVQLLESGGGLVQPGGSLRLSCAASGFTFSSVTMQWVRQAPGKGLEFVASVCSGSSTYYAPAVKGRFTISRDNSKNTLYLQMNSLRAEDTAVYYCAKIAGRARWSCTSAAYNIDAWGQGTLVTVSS
VL: B1 VL with N62T
notes: Human IgG1 constant region; expressed in HEK293; also called h#6-55 H(1)-L(2)
B5: anti-FSTL1 antibody clone #6-55 (chicken-mouse chimeric antibody) (antibody, mouse IgG1, kappa, V domains shown)
VH: AVTLDESGGGLQTPGGALSLVCKGSGFTFTSVTMQWVRQAPGKGLEWVASVCSGSSTYYAPAVKGRATISRDNGQSTVRLQLSNLRPEDTGTYYCAKIAGRARWSCTSAAYNIDAWGHGTEVIVSS
VL: ASTQPSSVSAIPGETVKITCSGGGNNYGWYQQRSPGSAPVTVIYYNDNRPSNIPSRFSGSTSGSTSTLTITGVQADDEAIYYCGSWDSNTDSGIFGAGTTLTVLG
notes: also called Anti-FSTL1 mAb (#6-55)
B6: anti-FSTL1 antibody clone #10 (chicken-mouse chimeric antibody) (antibody, mouse IgG1, kappa, V domains shown)
VH: AVTLDESGGGLQTPGGALSLVCKASGFFFFRIYDMGWVRQAPGKGLEWVAGIDDYGRYTGYGSAVKGRATISRDNGQSTVRLQLNNLRAEDTGTYYCARGAGTGCNSAGCGAYAGSIDAWGHGTEVIVSS
VL: ASTQPSSVSANPGETVKLTCSGGGSRYGWYQQKSPGSAPVTVIYYNDKRPSDIPSRFSGSKSGSTATLTITGVQAEDEAVYFCGGYDGSRDAGIFGAGTTLTVLG
B7: anti-FSTL1 antibody clone #5-8 (chicken-mouse chimeric antibody) (antibody, mouse IgG1, kappa, V domains shown)
VH: AVTLDESGGGLQTPGGGLSLVCKGSGFTFSSFNMFWVRQAPGKGLEWVAGIGKDGVPKYGTAVDGRATISKDNGQSTMRLQLNNLRAEDTGTYFCAKAAGGCSYDWCGIYTGDIDTWGHGTEVIVSS
VL: ASTQPSSVSANPGEAVKITCSGGSGSYYGWYQQKSPGSAPVTVIYNNNQRPSDIPSRFSGSKSGSTATLTITGVQAEDEAVYFCGGYDSSTGHGGIFGAGTTLTVLG
B8: anti-FSTL1 antibody clone #8-1 (chicken-mouse chimeric antibody) (antibody, mouse IgG1, kappa, V domains shown)
VH: B7 VH with G17A, T61A, T111A
VL: B7 VL with T91S
B9: anti-FSTL1 antibody clone #8-4 (chicken-mouse chimeric antibody) (antibody, mouse IgG1, kappa, V domains shown)
VH: AVTLDESGGGLQTPGGGLSLVCKGSGFTLSSFNMFWVRQAPGKGLEWVAGVGKDGGTAYGAAVDGRATISRDSGQSTVRLQLNNLRAEDTGTYFCAKAAGGCSYSWCGAYVGDLDAWGHGTEVIVSS
VL: ASSQPSSVSANPGETVKITCSGGSGYYYGWYQQKSPGSAPVTVIYNNDNKPSDIPSRFSGSKSGSTGTLTITGVQVEDEAVYFCGGYDNSGTGIFGAGTTLTVLG
B10: anti-FSTL1 antibody clone #13 (chicken-mouse chimeric antibody) (antibody, mouse IgG1, kappa, V domains shown)
VH: AVTLDESGGGLQTPGGGLSLVCKASGFTFSSVTMQWVRQAPGKGLEWVASICSGSSTYYGPAVKGRATISRDNGQNTVRLQLNNLRAEDTATYYCAKIVGRGRWSCTSAAYNIDAWGHGTEVIVSS
VL: ASTQPSSVSANPGETVKITCSGGGNNYGWYQQKSPGSAPVTVIYNNNNRPSNIPSRFSGSKSGSTNTLTITGVQAEDEAVYYCGSYDSSSDSGIFGAGTTLTVLG
B11: anti-FSTL1 antibody clone #33 (chicken-mouse chimeric antibody) (antibody, mouse IgG1, kappa, V domains shown)
VH: AVTLDESGGGLQTPGGGLSLVCKASGFTFSSFNMNWVRQAPGKGLEYVAEISGTGSSTYYGSAVKGRATISRDNGQSTVRLQLNNLRAEDTATYFCARGDGAYSIDAWGHGTEVIVSS
VL: ASTQPSSVSANPGETVEITCSGDSSYYGWFQQKSPGSAPVTVIYDNTNRPSDIPSRFSGSKSGSTATLTITGVRAEDEAVYYCGGYDSSTYDGIFGAGTTLTVLG
For Dissociation amount (RU) in this document: time not given here.

One assay deals with T1, human FSTL1 (construct not stated). In words: SPR (Biacore T-200), antibody on Human Antibody Capture Kit, human FSTL1 0 to 20 µg/ml. How it is done:
(§1) Nine IgG1-type humanized antibodies of #6-55 were immobilized onto Sensor Chip CM5 (GE Healthcare Japan Corp., BR-1005-30) using Human Antibody Capture Kit (GE Healthcare Japan Corp., BR-1008-38), and their affinity for human FSTL1 was calculated using Biacore T-200 (GE Healthcare Japan Corp.). […] Among the 9 IgG1-type humanized antibodies of #6-55, a clone composed of a combination “H(2)-L(1)” having a […] KD value was selected as a lead antibody.
The term Kd denotes the concentration at which binding is half-saturated. On to B1, for which the dissociation constant Kd came out at 35.2 nM.

As for B2, the Kd was 26.7 nM.

On to B3, for which the dissociation constant (Kd) came to 26.8 nM.

On to B4, for which the Kd was found to be 25 nM.

Another assay has the same target. Described as above. This is another data set of the same source. How it is done:
as §1
Take B1: the Kd came out at 35.2 nM.

For B3, the Kd was found to be 26.8 nM.

With B4, the Kd came to 25 nM.

For another assay the target is unchanged. In words: SPR (Biacore T-200), captured antibody, human FSTL1 10 µg/ml. How it is done:
(§2) The mouse chimeric antibodies were immobilized onto Sensor Chip CM5 (GE Healthcare Japan Corp., BR-1005-30) using Mouse Antibody Capture Kit (GE Healthcare Japan Corp., BR-1008-38), and their affinity for human FSTL1 was calculated using Biacore T-200 (GE Healthcare Japan Corp.).
(§3) First, the exhaustive activity comparison of the obtained antibodies was conducted with the human FSTL1 concentration fixed to 10 μg/ml (Table 33-1, FIG. 28).
(In general: SPR reads the build-up and loss of mass on a sensor chip optically.)
In the case of B5, the “Binding amount (RU)” value was 11 RU and the “Dissociation amount (RU)” value came to 1.5 RU.

Turning to B6, the “Binding amount (RU)” value turned out to be 11.7 RU and the “Dissociation amount (RU)” value came to 6 RU.

Turning to B7, the “Binding amount (RU)” value came to 6.7 RU and the “Dissociation amount (RU)” value was determined as 3.4 RU.

With B8, the “Binding amount (RU)” value was 11.1 RU and the “Dissociation amount (RU)” value was found to be 12.3 RU.

In the case of B9, the “Binding amount (RU)” value was determined as 11.6 RU and the “Dissociation amount (RU)” value is 6.2 RU.

For the molecule B10, the “Binding amount (RU)” value is 8.7 RU and the “Dissociation amount (RU)” value is 0.2 RU.

In the case of B11, the “Binding amount (RU)” value stood at 10.9 RU and the “Dissociation amount (RU)” value turned out to be 4.1 RU.

Another assay shares this target. The description is as above. This is another data set of the same source. How it is done:
as §2, §3
Turning to B5, the “Binding amount (RU)” value is 11 RU and the “Dissociation amount (RU)” value was determined as 1.5 RU.

For the molecule B6, the “Binding amount (RU)” value was found to be 11.7 RU and the “Dissociation amount (RU)” value came out at 6 RU.

B7: the “Binding amount (RU)” value worked out at 6.7 RU and the “Dissociation amount (RU)” value was found to be 3.4 RU.

Take B8: the “Binding amount (RU)” value was determined as 11.1 RU and the “Dissociation amount (RU)” value is 12.3 RU.

B9: the “Binding amount (RU)” value is 11.6 RU and the “Dissociation amount (RU)” value was 6.2 RU.

With B10, the “Binding amount (RU)” value worked out at 8.7 RU and the “Dissociation amount (RU)” value amounted to 0.2 RU.

With B11, the “Binding amount (RU)” value came out at 10.9 RU and the “Dissociation amount (RU)” value is 4.1 RU.

In a further assay the target is T2, His-tagged mouse FSTL1 (amino acid …). In words: ELISA, mouse FSTL1 coated (FIG. 3B). In general terms: An ELISA detects its analyte on a solid surface through an enzyme-linked reagent.
For the molecule B5, the binding result is given as “binds”.

For the molecule B6, the binding result is listed as “binds”.

Take B7: the binding result is listed as “no binding (tested: antibody diluted from 100 ng/ml)”.

On to B8, for which the binding result is listed as “binds”.

As to B9, the binding result is “no binding (tested: antibody diluted from 100 ng/ml)”.

B10: the binding result was “binds”.

As to B11, the binding result is “binds”.

The target in a further assay is T1, human FSTL1 (construct not stated). In words: SPR (Biacore T-200), captured antibody, human FSTL1 10 µg/ml. This is another data set of the same source. Here is the method:
as §2, §3
B5: the “Binding amount (RU)” value is 11 RU and the “Dissociation amount (RU)” value stood at 1.5 RU.

For the molecule B6, the “Binding amount (RU)” value stood at 11.7 RU and the “Dissociation amount (RU)” value turned out to be 6 RU.

As to B7, the “Binding amount (RU)” value worked out at 6.7 RU and the “Dissociation amount (RU)” value stood at 3.4 RU.

With B8, the “Binding amount (RU)” value is 11.1 RU and the “Dissociation amount (RU)” value came out at 12.3 RU.

Turning to B9, the “Binding amount (RU)” value is 11.6 RU and the “Dissociation amount (RU)” value came out at 6.2 RU.

B10: the “Binding amount (RU)” value was determined as 8.7 RU and the “Dissociation amount (RU)” value turned out to be 0.2 RU.

As for B11, the “Binding amount (RU)” value came out at 10.9 RU and the “Dissociation amount (RU)” value stood at 4.1 RU.

A further assay has the same target. The description is as above. This is another data set of the same source. Here is the method:
as §2
Consider B5, for which the “Binding amount (RU)” value stood at 11 RU and the “Dissociation amount (RU)” value came to 1.5 RU.

As to B6, the “Binding amount (RU)” value worked out at 11.7 RU and the “Dissociation amount (RU)” value came out at 6 RU.

Take B7: the “Binding amount (RU)” value was determined as 6.7 RU and the “Dissociation amount (RU)” value was 3.4 RU.

Consider B8, for which the “Binding amount (RU)” value is 11.1 RU and the “Dissociation amount (RU)” value worked out at 12.3 RU.

On to B9, for which the “Binding amount (RU)” value stood at 11.6 RU and the “Dissociation amount (RU)” value was found to be 6.2 RU.

With B10, the “Binding amount (RU)” value came out at 8.7 RU and the “Dissociation amount (RU)” value amounted to 0.2 RU.

With B11, the “Binding amount (RU)” value was 10.9 RU and the “Dissociation amount (RU)” value worked out at 4.1 RU.

A further assay has the same target. In words: SPR (Biacore T-200), antibody on Human Antibody Capture Kit, human FSTL1 0 to 20 µg/ml. The source holds these as a separate data set. How it is done: as §1
Regarding B1, the Kd was determined as 35.2 nM.

B3: the dissociation constant Kd turned out to be 26.8 nM.

As for B4, the Kd came out at 25 nM.

A further assay shares this target. The description is as above. This is another data set of the same source. How it is done: as §1
With B1, the equilibrium dissociation constant (Kd) was found to be 35.2 nM.

B2: the dissociation constant (Kd) worked out at 26.7 nM.

On to B3, for which the Kd was 26.8 nM.

On to B4, for which the Kd came out at 25 nM.
